In paper PMC3334620:

Legend:
Settings in all cases: 200 nM
[1] = molecular target: T1, Ybr033w (Saccharomyces cerevisiae) (UniProt P38073)
T1 sequence: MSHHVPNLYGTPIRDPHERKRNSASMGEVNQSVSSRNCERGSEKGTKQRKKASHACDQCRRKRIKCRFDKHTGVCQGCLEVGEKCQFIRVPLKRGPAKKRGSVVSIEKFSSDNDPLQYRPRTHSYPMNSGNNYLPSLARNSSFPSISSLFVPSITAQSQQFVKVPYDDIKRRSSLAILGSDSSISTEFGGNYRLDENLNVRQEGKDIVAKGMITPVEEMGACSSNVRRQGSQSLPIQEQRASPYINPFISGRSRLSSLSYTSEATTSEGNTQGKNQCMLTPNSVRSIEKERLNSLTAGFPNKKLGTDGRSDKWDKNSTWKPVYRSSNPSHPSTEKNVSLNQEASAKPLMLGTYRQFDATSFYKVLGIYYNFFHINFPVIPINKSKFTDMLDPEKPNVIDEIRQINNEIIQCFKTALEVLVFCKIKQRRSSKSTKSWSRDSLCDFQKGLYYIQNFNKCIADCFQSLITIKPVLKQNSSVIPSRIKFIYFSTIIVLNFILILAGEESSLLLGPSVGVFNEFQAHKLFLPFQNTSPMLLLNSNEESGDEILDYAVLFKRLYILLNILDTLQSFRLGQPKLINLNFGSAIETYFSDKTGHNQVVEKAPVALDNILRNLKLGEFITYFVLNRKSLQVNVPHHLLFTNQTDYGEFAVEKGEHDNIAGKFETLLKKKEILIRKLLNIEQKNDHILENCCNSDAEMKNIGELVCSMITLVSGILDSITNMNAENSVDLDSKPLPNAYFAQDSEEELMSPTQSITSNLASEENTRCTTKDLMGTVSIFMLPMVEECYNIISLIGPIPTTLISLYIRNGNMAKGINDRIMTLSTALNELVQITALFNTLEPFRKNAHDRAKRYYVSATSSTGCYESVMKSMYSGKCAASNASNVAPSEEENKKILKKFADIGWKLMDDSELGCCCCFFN

[2] = molecular target: T2, Vhr1 (Saccharomyces cerevisiae) (UniProt P40522)
T2 sequence: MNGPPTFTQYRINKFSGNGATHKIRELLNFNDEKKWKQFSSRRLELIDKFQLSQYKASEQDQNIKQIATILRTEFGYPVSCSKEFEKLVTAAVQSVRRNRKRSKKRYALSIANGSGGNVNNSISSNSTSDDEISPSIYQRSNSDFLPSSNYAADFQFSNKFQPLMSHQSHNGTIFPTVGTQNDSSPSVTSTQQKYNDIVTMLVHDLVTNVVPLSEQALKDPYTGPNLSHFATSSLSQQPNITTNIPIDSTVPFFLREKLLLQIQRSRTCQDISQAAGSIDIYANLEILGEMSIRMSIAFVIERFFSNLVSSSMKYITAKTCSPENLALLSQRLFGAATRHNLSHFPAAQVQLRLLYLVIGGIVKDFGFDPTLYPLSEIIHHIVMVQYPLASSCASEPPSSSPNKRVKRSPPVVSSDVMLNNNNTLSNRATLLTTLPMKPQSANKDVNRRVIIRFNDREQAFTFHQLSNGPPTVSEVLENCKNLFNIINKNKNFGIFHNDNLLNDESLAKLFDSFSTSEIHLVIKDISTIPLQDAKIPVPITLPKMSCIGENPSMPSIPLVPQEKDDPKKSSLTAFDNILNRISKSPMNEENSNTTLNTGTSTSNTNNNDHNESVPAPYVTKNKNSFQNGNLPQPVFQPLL

[3] = molecular target: T3, Vhr2 (Saccharomyces cerevisiae) (UniProt P40041)
T3 sequence: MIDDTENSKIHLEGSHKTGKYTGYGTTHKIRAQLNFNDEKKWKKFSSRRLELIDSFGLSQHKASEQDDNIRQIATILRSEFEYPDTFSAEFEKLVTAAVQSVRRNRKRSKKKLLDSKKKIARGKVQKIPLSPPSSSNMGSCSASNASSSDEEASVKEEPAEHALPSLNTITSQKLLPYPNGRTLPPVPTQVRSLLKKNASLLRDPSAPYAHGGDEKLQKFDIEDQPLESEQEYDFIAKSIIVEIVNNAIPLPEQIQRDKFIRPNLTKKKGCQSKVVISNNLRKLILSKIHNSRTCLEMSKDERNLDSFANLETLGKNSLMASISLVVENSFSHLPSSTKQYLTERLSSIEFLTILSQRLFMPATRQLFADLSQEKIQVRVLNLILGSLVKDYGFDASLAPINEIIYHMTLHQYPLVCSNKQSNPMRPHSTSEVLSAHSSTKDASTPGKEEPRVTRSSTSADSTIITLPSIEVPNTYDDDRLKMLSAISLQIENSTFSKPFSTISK

[4] = molecular target: T4, Zap1 (Saccharomyces cerevisiae) (UniProt P47043)
T4 sequence: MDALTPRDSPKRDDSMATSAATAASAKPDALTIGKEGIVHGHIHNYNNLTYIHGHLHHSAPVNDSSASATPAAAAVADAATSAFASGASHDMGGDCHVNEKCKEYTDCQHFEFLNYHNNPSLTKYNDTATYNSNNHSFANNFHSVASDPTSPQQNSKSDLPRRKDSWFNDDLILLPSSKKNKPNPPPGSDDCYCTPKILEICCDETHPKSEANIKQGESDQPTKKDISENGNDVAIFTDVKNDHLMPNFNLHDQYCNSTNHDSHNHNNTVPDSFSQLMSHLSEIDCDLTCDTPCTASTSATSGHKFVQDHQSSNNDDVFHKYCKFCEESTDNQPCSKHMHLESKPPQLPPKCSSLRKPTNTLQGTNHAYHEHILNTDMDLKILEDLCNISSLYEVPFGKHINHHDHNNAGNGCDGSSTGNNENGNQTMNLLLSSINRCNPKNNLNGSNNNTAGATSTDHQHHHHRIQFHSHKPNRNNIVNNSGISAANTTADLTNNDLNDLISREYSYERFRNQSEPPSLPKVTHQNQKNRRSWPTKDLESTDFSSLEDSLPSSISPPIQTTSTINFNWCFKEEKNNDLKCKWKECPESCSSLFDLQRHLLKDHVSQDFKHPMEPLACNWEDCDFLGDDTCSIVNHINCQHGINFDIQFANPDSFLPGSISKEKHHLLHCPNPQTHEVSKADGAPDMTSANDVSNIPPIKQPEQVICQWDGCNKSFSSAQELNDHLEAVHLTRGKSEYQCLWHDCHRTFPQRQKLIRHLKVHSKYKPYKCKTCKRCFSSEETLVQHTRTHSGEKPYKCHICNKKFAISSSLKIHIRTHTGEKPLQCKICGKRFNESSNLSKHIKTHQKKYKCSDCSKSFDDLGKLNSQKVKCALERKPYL

## ATTGTTCC (double strand) [8-mer ATTGTTCC]
[1]
  binding signal (PBM E-score (-0.5 to 0.5)): 0.484

## GAGTCACC (double strand) [8-mer GAGTCACC]
[2]
  binding signal (PBM E-score (-0.5 to 0.5)): 0.491
[3]
  binding signal (PBM E-score (-0.5 to 0.5)): 0.496

## GGTTATGA (double strand) [8-mer GGTTATGA]
[4]
  binding signal (PBM E-score (-0.5 to 0.5)): 0.48

## GAGTCATA (double strand) [8-mer GAGTCATA]
[2]
  binding signal (PBM E-score (-0.5 to 0.5)): 0.484
[3]
  binding signal (PBM E-score (-0.5 to 0.5)): 0.495

## AAAGGTTA (double strand) [8-mer AAAGGTTA]
[4]
  binding signal (PBM E-score (-0.5 to 0.5)): 0.479

## ATAACCTC (double strand) [8-mer ATAACCTC]
[4]
  binding signal (PBM E-score (-0.5 to 0.5)): 0.487

## ATTTATCC (double strand) [8-mer ATTTATCC]
[1]
  binding signal (PBM E-score (-0.5 to 0.5)): 0.485

## CGGAAAAA (double strand) [8-mer CGGAAAAA]
[1]
  binding signal (PBM E-score (-0.5 to 0.5)): 0.495

## CGGAGTCA (double strand) [8-mer CGGAGTCA]
[2]
  binding signal (PBM E-score (-0.5 to 0.5)): 0.485

## GGAAAAAA (double strand) [8-mer GGAAAAAA]
[1]
  binding signal (PBM E-score (-0.5 to 0.5)): 0.472

## CGTAACCC (double strand) [8-mer CGTAACCC]
[4]
  binding signal (PBM E-score (-0.5 to 0.5)): 0.482

## AATTATCC (double strand) [8-mer AATTATCC]
[1]
  binding signal (PBM E-score (-0.5 to 0.5)): 0.471

## CGGAACAA (double strand) [8-mer CGGAACAA]
[1]
  binding signal (PBM E-score (-0.5 to 0.5)): 0.491

## CGGATCAA (double strand) [8-mer CGGATCAA]
[1]
  binding signal (PBM E-score (-0.5 to 0.5)): 0.472

## AGGGGTTA (double strand) [8-mer AGGGGTTA]
[4]
  binding signal (PBM E-score (-0.5 to 0.5)): 0.479

## AAGGTTAT (double strand) [8-mer AAGGTTAT]
[4]
  binding signal (PBM E-score (-0.5 to 0.5)): 0.478

## AGGTTACC (double strand) [8-mer AGGTTACC]
[4]
  binding signal (PBM E-score (-0.5 to 0.5)): 0.476

## CATGACTC (double strand) [8-mer CATGACTC]
[2]
  binding signal (PBM E-score (-0.5 to 0.5)): 0.485
[3]
  binding signal (PBM E-score (-0.5 to 0.5)): 0.494

## GGAGTCAC (double strand) [8-mer GGAGTCAC]
[2]
  binding signal (PBM E-score (-0.5 to 0.5)): 0.485

## GATGACTA (double strand) [8-mer GATGACTA]
[3]
  binding signal (PBM E-score (-0.5 to 0.5)): 0.495

## CTGAGTCA (double strand) [8-mer CTGAGTCA]
[2]
  binding signal (PBM E-score (-0.5 to 0.5)): 0.489
[3]
  binding signal (PBM E-score (-0.5 to 0.5)): 0.496

## AGTGACTC (double strand) [8-mer AGTGACTC]
[2]
  binding signal (PBM E-score (-0.5 to 0.5)): 0.481

## CAGGGTTA (double strand) [8-mer CAGGGTTA]
[4]
  binding signal (PBM E-score (-0.5 to 0.5)): 0.477

## CGGATTAA (double strand) [8-mer CGGATTAA]
[1]
  binding signal (PBM E-score (-0.5 to 0.5)): 0.482

## CCATAACC (double strand) [8-mer CCATAACC]
[4]
  binding signal (PBM E-score (-0.5 to 0.5)): 0.479

## ATAACCCC (double strand) [8-mer ATAACCCC]
[4]
  binding signal (PBM E-score (-0.5 to 0.5)): 0.476

## ATTAATCC (double strand) [8-mer ATTAATCC]
[1]
  binding signal (PBM E-score (-0.5 to 0.5)): 0.486

## GGAAAAAC (double strand) [8-mer GGAAAAAC]
[1]
  binding signal (PBM E-score (-0.5 to 0.5)): 0.476

## CTGACTCA (double strand) [8-mer CTGACTCA]
[2]
  binding signal (PBM E-score (-0.5 to 0.5)): 0.49
[3]
  binding signal (PBM E-score (-0.5 to 0.5)): 0.494

## ATGACTCC (double strand) [8-mer ATGACTCC]
[2]
  binding signal (PBM E-score (-0.5 to 0.5)): 0.494
[3]
  binding signal (PBM E-score (-0.5 to 0.5)): 0.493

## CATAACCC (double strand) [8-mer CATAACCC]
[4]
  binding signal (PBM E-score (-0.5 to 0.5)): 0.482

## CGGATAAA (double strand) [8-mer CGGATAAA]
[1]
  binding signal (PBM E-score (-0.5 to 0.5)): 0.488

## AGGGTTAC (double strand) [8-mer AGGGTTAC]
[4]
  binding signal (PBM E-score (-0.5 to 0.5)): 0.484

## ATGAGTCA (double strand) [8-mer ATGAGTCA]
[2]
  binding signal (PBM E-score (-0.5 to 0.5)): 0.492
[3]
  binding signal (PBM E-score (-0.5 to 0.5)): 0.498

## GTGACTCA (double strand) [8-mer GTGACTCA]
[2]
  binding signal (PBM E-score (-0.5 to 0.5)): 0.496
[3]
  binding signal (PBM E-score (-0.5 to 0.5)): 0.498

## ATTTTTCC (double strand) [8-mer ATTTTTCC]
[1]
  binding signal (PBM E-score (-0.5 to 0.5)): 0.486

## AGGGTTAT (double strand) [8-mer AGGGTTAT]
[4]
  binding signal (PBM E-score (-0.5 to 0.5)): 0.49

## GTGAGTCA (double strand) [8-mer GTGAGTCA]
[2]
  binding signal (PBM E-score (-0.5 to 0.5)): 0.494
[3]
  binding signal (PBM E-score (-0.5 to 0.5)): 0.498

## GAGTCATC (double strand) [8-mer GAGTCATC]
[2]
  binding signal (PBM E-score (-0.5 to 0.5)): 0.492
[3]
  binding signal (PBM E-score (-0.5 to 0.5)): 0.497

## AAGGGTTA (double strand) [8-mer AAGGGTTA]
[4]
  binding signal (PBM E-score (-0.5 to 0.5)): 0.489

## AATGACTC (double strand) [8-mer AATGACTC]
[3]
  binding signal (PBM E-score (-0.5 to 0.5)): 0.495

## ATTATTCC (double strand) [8-mer ATTATTCC]
[1]
  binding signal (PBM E-score (-0.5 to 0.5)): 0.479

## ATGACTAA (double strand) [8-mer ATGACTAA]
[3]
  binding signal (PBM E-score (-0.5 to 0.5)): 0.494

## AGAGGTTA (double strand) [8-mer AGAGGTTA]
[4]
  binding signal (PBM E-score (-0.5 to 0.5)): 0.476

## ATGACTAC (double strand) [8-mer ATGACTAC]
[3]
  binding signal (PBM E-score (-0.5 to 0.5)): 0.494

## GAGTCACA (double strand) [8-mer GAGTCACA]
[2]
  binding signal (PBM E-score (-0.5 to 0.5)): 0.487

## AATGTTCC (double strand) [8-mer AATGTTCC]
[1]
  binding signal (PBM E-score (-0.5 to 0.5)): 0.471

## ATGACTCA (double strand) [8-mer ATGACTCA]
[2]
  binding signal (PBM E-score (-0.5 to 0.5)): 0.495
[3]
  binding signal (PBM E-score (-0.5 to 0.5)): 0.499

## ATTTTCCG (double strand) [8-mer ATTTTCCG]
[1]
  binding signal (PBM E-score (-0.5 to 0.5)): 0.472
